For this test, the target named is T1, AtPRP40b, recombinant (A. thaliana, UniProt F4JCC1 1-992).
T1 sequence: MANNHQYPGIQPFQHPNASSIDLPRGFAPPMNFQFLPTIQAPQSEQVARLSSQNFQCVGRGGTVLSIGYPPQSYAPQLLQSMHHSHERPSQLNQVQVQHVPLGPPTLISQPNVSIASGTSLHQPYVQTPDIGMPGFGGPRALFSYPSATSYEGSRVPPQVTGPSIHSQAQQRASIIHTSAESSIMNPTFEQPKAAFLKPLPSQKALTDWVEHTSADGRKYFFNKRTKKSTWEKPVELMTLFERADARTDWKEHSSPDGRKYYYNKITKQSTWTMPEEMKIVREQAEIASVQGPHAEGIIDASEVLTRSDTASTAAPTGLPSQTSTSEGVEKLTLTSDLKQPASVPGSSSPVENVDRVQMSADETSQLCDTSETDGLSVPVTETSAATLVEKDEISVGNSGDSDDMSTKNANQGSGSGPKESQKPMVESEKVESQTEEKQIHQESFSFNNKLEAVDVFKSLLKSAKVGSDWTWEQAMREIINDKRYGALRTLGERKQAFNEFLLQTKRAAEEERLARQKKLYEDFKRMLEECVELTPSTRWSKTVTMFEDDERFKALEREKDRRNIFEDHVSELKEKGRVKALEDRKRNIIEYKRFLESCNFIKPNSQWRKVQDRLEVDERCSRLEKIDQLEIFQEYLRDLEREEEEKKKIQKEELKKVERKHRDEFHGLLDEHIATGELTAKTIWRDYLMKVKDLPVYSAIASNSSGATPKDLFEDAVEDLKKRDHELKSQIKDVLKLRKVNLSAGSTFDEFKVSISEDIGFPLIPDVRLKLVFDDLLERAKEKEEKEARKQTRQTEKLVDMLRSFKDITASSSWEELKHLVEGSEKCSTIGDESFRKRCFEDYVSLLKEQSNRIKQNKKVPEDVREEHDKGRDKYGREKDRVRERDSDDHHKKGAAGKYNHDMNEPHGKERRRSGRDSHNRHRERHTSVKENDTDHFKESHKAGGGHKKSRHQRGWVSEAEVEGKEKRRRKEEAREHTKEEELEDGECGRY
Put plainly: pull-down.

B1: SERRATE (SE), full length, recombinant (natural protein, A. thaliana, UniProt Q9ZVD0 1-720, looked up)
chain: MADVNLPPSDSVDNRLPEKSTSSSPPPPPPSSSLPQQEQEQDQQQLPLRRERDSRERRDERDIERPPPNRRERDRSPLPPPRRDYKRRPSLSPPPPYRDRRHSPPQRRSPPQKRYRRDDNGYDGRRGSPRGGYGPPDRRFGYDHGGGYDREMGGRPGYGDERPHGRFMGRYQDWEGGRGGYGDASNSGNPQRDGLMSYKQFIQELEDDILPSEAERRYQEYKSEYITTQKRAFFNTHKEEDWLKNKYHPTNLLSVIERRNDLAQKVAKDFLLDLQSGTLDLGPAVTALNKSGRTSEPNSEDEAAGVGKRKRHGMGGAKENELLSAAPKAPSFTSDPKRILTDVEQTQALVRKLDSEKKIEENVLQGSETEKSGREKLHSGSTGPVVIIRGLTSVKGLEGVELLDTLVTYLWRVHGLDYYGKVETNEAKGLRHVRAEGKVSDAKGDENESKFDSHWQERLKGQDPLEVMAAKEKIDAAATEALDPHVRKIRDEKYGWKYGCGAKGCTKLFHAAEFVYKHLKLKHTELVTELTTKVREELYFQNYMNDPNAPGGQPATQQSGPRDRPIRRKPSMENRLRDDRGGRRERDGRANGNDRNDRSEDQQRGDNDGGNPGEVGYDAFGGQGGVHVPPFLSDINPPPMLMPVPGAGPLGPFVPAPPEVAMQMFRDPSGPNPPFEGSGRGGPAPFLLSPAFRQDPRRLRSYQDLDAPEEEVTVIDYRSL
In the case of B1, the binding result was “binds”.
